According to patent publication EP0561496A2 (NEW ENGLAND MEDICAL CENTER HOSPITALS, INC., priority 1992, dated 1993):
Blank lines part the entries; values can stand above or below the compound they belong to.

Legend:
[1] = biological target: gastrin receptor on native canine parietal cells (canine); experiment: radioligand saturation binding, native parietal cells
[2] = biological target: canine parietal cell gastrin receptor (recombinant, clone GR-1, expressed in transfected COS-7 cells) (canine); experiment: 125I-CCK-8 binding to GR-1 transfected COS-7 cells, no competitor (FIG. 3)
[3] = biological target: canine parietal cell gastrin receptor (recombinant, clone GR-1, expressed in transfected COS-7 cells) (canine); experiment: radioligand saturation binding, GR-1 transfected COS-7 cells
[4] = biological target: canine parietal cell gastrin receptor (recombinant, clone GR-1, expressed in transfected COS-7 cells) (canine); experiment: competition against 125I-CCK-8, isolated membranes of GR-1 transfected COS-7 cells
[5] = biological target: canine parietal cell gastrin receptor (recombinant, clone GR-1, expressed in transfected COS-7 cells) (canine); experiment: competition against 125I-CCK-8, intact GR-1 transfected COS-7 cells
[6] = biological target: canine parietal cell gastrin receptor (recombinant, clone GR-1, expressed in transfected COS-7 cells) (canine); experiment: cell-based or functional assay
[7] = biological target: T1, recombinant GR-1 receptor (canine parietal cell gastrin receptor) (Canis lupus familiaris, UniProt P30552); experiment: Competition binding in isolated plasma membranes from GR-1 transfected COS-7 cells; conditions: isolated membranes from transiently transfected COS-7 cells, 60 min at 22°C; read-out: IC₅₀
T1 construct: expressed in transfected cells; host or cells: COS-7 cells transiently transfected with GR-1 in pCDNA-1
T1 sequence (P30552 1-453): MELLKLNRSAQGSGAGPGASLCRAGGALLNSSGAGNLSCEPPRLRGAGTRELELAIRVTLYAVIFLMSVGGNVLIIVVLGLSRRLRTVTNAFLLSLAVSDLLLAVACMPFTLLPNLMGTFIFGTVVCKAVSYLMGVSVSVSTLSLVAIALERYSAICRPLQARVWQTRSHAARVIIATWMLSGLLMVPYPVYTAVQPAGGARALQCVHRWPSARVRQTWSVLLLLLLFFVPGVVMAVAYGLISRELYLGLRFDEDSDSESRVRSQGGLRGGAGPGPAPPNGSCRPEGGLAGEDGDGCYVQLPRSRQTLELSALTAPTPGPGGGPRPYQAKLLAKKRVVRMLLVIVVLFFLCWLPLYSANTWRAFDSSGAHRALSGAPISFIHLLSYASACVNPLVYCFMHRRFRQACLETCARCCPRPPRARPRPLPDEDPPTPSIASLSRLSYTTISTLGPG
Protocol: Binding parameters were also measured in isolated plasma membranes from COS-7 cells transfected with GR-1. Binding was performed for 60 min at 22°C.

[8] = biological target: T1, recombinant GR-1 receptor (canine parietal cell gastrin receptor); experiment: Competition binding of 125I-CCK-8 to intact GR-1 transfected COS-7 cells
Protocol: COS-7 cells (1.5x 10⁶) were plated in 10 cm culture dishes (Nunc) and grown in DMEM/ 10% fetal calf serum, 5% CO₂ at 37°C. […] Twenty-four hours following transfection, cells were split into 24-well dishes (Nunc), 5000 cells/well. […] Equilibrium binding occurred after incubation for 80 min at 37°C. Cell monolayers were subsequently washed three times and bound radioactivity was quantified after cell hydrolysis in 1 N NaOH.

[9] = biological target: T2, human brain CCK-B receptor (Homo sapiens, UniProt P32239); experiment: Competition binding of 125I CCK-8 to COS-7 cells transfected with hCCKB-pcDNA I; conditions: recombinant human CCK-B receptor
T2 construct: isolate the corresponding full length human CCK-B receptor cDNA from a fetal (week 23) human brain library; expressed in transfected cells; host or cells: COS-7 cells transiently transfected with hCCKB-pcDNA I
T2 sequence (P32239 1-447): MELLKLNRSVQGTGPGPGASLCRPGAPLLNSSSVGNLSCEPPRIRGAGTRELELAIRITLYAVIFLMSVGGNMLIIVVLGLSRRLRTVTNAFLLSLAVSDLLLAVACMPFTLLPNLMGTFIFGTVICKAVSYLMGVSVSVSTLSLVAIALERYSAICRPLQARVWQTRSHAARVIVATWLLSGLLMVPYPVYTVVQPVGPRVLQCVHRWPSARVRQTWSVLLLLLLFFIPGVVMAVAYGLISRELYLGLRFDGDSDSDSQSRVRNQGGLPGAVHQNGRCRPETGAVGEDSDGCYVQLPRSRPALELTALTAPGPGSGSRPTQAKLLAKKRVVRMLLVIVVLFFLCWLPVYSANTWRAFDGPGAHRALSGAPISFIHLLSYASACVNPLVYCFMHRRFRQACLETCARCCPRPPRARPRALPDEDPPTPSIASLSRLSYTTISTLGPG

Kd [1]: 0.27 nM | Maximum binding in the absence of competitor (100%) [2]: 5.2 pM | Kd [3]: 0.08 nM
Compound: ¹²⁵I-CCK-8 (from UniProt P06307 96-103) (peptide)

IC50 [4]: 0.4 nM | IC50 [5]: 0.26 nM | free cytosolic calcium, [Ca²⁺] [6]: 142 nM | free cytosolic calcium, [Ca²⁺], after chelation of extracellular calcium by EGTA (2.5 mM) [6]: 88.5 nM | level of Ins-1,3,4,5-P₄, increase [6]: 272% | level of Ins-1,4,5-P₃, increase over control [6]: 741%
Compound: gastrin I (from UniProt P01350 76-92) (peptide)

IC50 [4]: 0.08 nM | IC50 [5]: 0.09 nM
Compound: CCK-8 (from UniProt P06307 96-103) (peptide)

IC50 [7]: 1.5 nM | IC50 ([8]; intact GR-1 transfected COS-7 cells, 40 pM 125I-CCK-8 radioligand, 80 min at 37°C, read-out: IC₅₀): 1.4 nM
Compound: CSCC[C@H](NC(=O)[C@H](Cc1ccc(O)cc1)NC(=O)[C@@H](N)CC(=O)O)C(=O)NCC(=O)N[C@@H](Cc1c[nH]c2ccccc12)C(=O)N[C@@H](CCSC)C(=O)N[C@@H](CC(=O)O)C(=O)N[C@@H](Cc1ccccc1)C(N)=O [CCK-8-desulfate]

Compound: Cc1cccc(NC(=O)N[C@@H]2N=C(c3ccccc3)c3ccccc3N(C)C2=O)c1 [L365,260]
higher affinity than L364,718 [9]: approximately 40 fold | IC50 [8]: 130 nM

IC50 [4]: 1.5 nM
Compound: CCK-8-desulfate (from UniProt P06307 96-103) (peptide)

IC50 ([8]; read-out: IC₅₀): 19 nM
Compound: CN1C(=O)[C@@H](NC(=O)c2cc3ccccc3[nH]2)N=C(c2ccccc2)c2ccccc21 [L364,718]
